# Reference: US20200317768A1 (published 2020)
# Changes are numbered by the printed parent chain.
# B1: M103205H795-MY262/M103202L889-SK1 (antibody, human IgG1, kappa)
# heavy: QVTLKESGPVLVKPTETLTLTCTVSGIDLSHDDISWVRQAPGKGLEWVGIISYAGSTYYASWAKGRLTISKDTSKNQVVLTMTNMDPVDTATYYCARGVPAYSHGGDLWGQGTLVTVSSASTKGPSVFPLAPSSKSTSGGTAALGCLVKDYFPEPVTVSWNSGALTSGVHTFPAVLQSSGLYSLSSVVTVPSSSLGTQTYICNVNHKPSNTKVDKKVEPKSCDKTHTCPPCPAPELLVGPSVFLFPPKPKDTLMISRTPEVTCVVVDVSDEDPEVKFNWYVDGVEVHNAKTKPREEQYNSTYRVVSVLTVLHQDWLNGKEYKCKVSNKALPKPIEKTISKAKGQPREPQVYTLPPSREEMTKNQVSLTCLVKGFYPSDIAVEWESNGQPENNYKTTPPVLDSDGSFFLYSKLTVDKSRWQQGNVFSCSVMHEALHNHYTQKSLSLSP
# light: DIVMTQSPATLSLSPGERATLSCTSSQSVYHANWLSWFQQKPGQPPKLLIYWASTLAYGVPSRFSGSGSGTDFTLTISSLQPEDAATYYCAGGYGGGRYAFGQGTKVEIKRTVAAPSVFIFPPSDEQLKSGTASVVCLLNNFYPREAKVQWKVDNALQSGNSQESVTEQDSKDSTYSLSSTLTLSKADYEKHKVYACEVTHQGLSSPVTKSFNRGEC
# notes: copies: 2 + 2
# B2: M103205H795-MY264/M103202L889-SK1 (antibody, human IgG1, kappa)
# heavy: B1 heavy with V238L
# light: B1 light
# notes: copies: 2 + 2
# B3: M103205H795-MY263/M103202L889-SK1 (antibody, human IgG1, kappa)
# heavy: B1 heavy with V238Q
# light: B1 light
# notes: copies: 2 + 2
# B4: M103205H795-MY267/M103202L889-SK1 (antibody, human IgG1, kappa)
# heavy: B1 heavy with V238I
# light: B1 light
# notes: copies: 2 + 2
# B5: M103205H795-MY265/M103202L889-SK1 (antibody, human IgG1, kappa)
# heavy: B1 heavy with V238T
# light: B1 light
# notes: copies: 2 + 2
# Columns and labels:
# [1] = target: T1, human FcγRIIaR extracellular domain, His-tagged (human, UniProt P12318 34-217); assay: SPR (BIACORE), antibody captured, FcγR as analyte, 25°C
# T1 construct: also called human FcgRIIaR; FcγRIIa (type R); not shown: His-tag added to the C-terminus
# T1 chain: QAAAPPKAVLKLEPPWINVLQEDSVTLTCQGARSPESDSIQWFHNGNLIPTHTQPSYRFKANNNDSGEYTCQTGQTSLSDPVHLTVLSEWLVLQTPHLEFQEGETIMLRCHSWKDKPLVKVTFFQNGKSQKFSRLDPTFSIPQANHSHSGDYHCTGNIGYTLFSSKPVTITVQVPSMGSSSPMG
# [2] = target: T2, cynomolgus monkey FcγRIIa2 extracellular domain, His-tagged (cynomolgus monkey); assay: as above
# T2 construct: also called cyno FcgRIIa2; cynoFcγRIIa2; not shown: His-tag added to the C-terminus
# T2 chain: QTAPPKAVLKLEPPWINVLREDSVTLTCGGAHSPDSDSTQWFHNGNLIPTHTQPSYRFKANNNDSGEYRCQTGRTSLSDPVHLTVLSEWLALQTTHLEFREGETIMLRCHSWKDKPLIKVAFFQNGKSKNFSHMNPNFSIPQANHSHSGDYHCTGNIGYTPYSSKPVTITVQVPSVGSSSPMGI
Binder,Kd [1],Kd [2]
B1,710 nM,1700 nM
B2,2300 nM,5500 nM
B3,710 nM,3000 nM
B4,720 nM,20000 nM
B5,440 nM,1900 nM
